Substance	Kd (N9) [pM]	koff (N9) [s⁻¹]	kon (N9) [M⁻¹ s⁻¹]	Kd (N1) [nM]	koff (N1) [s⁻¹]	kon (N1) [M⁻¹ s⁻¹]
1G01 (antibody)	< 1	< 1e-07	106000	0.868	4.79e-05	55100
FNI3 (antibody)	2.86	9.45e-07	330000	< 0.001	< 1e-07	39500
FNI9 (antibody)	< 1	–	–	0.0164	–	–

— patent US20240092876A1 (priority 2020, published 2024)
